Source: PMC10774421 (Nature Communications, 2024)

Columns and labels:
[1] = target: HiSiaQM OFS #2 (Y252C/M297C in HiSiaQM ΔCys) (Haemophilus influenzae) (UniProt P44543); experiment: single-molecule TIRF microscopy
HiSiaP = target: T1, HiSiaP (Haemophilus influenzae, UniProt P44542, S67C/S194C); settings: 50 mM Tris pH 8, 50 mM NaCl; average of triplicates; CLOSED #1, no oxidant added
T1 construct: gene siaP

wild-type HiSiaQM = target: T2, wild-type HiSiaQM (Haemophilus influenzae, UniProt P44543); experiment: single-molecule TIRF microscopy; settings: both partners purified
T2 construct: also called wt HiSiaQM; HiSiaQM wt

Molecule: AF647-labeled wild-type HiSiaP (K254C) (from UniProt P44542 24-329) (natural protein)
- change of the rate of interactions (against the wild-type proteins) [1]: -50%

Molecule: CC(=O)N[C@H]1[C@H]([C@H](O)[C@H](O)CO)OC(O)(C(=O)O)C[C@@H]1O (stereo partly drawn) [Neu5Ac]
- Kd (HiSiaP): 0.8 µM

B1: AF555-VHHQM3 (S85C) (VHH)
VHH: QLQLVETGGGLVQPGGSLRLSCTASRVTLDYHDIGWFRQAPGKEREGVSYISSSGGSTNYADSVKGRFTISRDNAKNTVYLQMNCLKPEDTAVYYCARSSAYGSSWLNPSRYDYWGQGTQVTVSS
- binding result (wild-type HiSiaQM): binds
